Earlier results on one substance are cited in article PMC8469970.

This data set concerns the target Galectin-1 (Homo sapiens) (UniProt P09382).

A word on the Kd: it is the constant that tells how readily two partners part at equilibrium. On to Galectin-1 (from UniProt P09382), for which the Kd was 7 µM.
